Assays:
[1] = target: Ca2+ channel (L, dihydropyridine site); assay: radioligand displacement, compound at 10 µM
BZD (central) = assay: radioligand displacement, compound at 10 µM
MAO-A = assay: radioligand displacement, compound at 10 µM
Na+ channel (site 2) = assay: radioligand displacement, compound at 10 µM
KV channel = assay: radioligand displacement, compound at 10 µM
NMDA = assay: radioligand displacement, compound at 10 µM
[2] = target: Ubiquitin carboxyl-terminal hydrolase 14 (Homo sapiens (Human)) (UniProt P54578)
[3] = target: Matrix metalloprotease1 (Homo sapiens (Human)) (UniProt P03956)
Sequence of Matrix metalloprotease1 (Homo sapiens (Human)) (P03956 100-469): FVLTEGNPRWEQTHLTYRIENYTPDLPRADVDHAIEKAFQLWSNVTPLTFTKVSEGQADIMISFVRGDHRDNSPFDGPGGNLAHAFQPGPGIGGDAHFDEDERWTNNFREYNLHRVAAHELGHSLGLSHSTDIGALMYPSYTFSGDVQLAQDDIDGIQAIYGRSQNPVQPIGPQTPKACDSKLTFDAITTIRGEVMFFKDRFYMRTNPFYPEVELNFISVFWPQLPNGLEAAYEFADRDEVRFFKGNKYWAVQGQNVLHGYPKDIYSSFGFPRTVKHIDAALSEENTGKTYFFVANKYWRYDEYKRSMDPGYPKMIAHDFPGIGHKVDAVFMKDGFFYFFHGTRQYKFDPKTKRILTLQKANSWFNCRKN

[4] = target: T1, Cathepsin F (Homo sapiens (Human)) (UniProt Q9UBX1)
T1 sequence: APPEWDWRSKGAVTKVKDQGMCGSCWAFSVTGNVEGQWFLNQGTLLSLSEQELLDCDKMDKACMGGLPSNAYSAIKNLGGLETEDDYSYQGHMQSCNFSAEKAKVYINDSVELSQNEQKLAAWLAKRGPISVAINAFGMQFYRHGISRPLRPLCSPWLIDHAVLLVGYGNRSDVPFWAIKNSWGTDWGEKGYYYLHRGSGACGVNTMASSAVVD

[5] = target: Matrix metalloprotease 2 (Homo sapiens (Human)) (UniProt P08253)
Sequence of Matrix metalloprotease 2 (Homo sapiens (Human)) (P08253 110-660): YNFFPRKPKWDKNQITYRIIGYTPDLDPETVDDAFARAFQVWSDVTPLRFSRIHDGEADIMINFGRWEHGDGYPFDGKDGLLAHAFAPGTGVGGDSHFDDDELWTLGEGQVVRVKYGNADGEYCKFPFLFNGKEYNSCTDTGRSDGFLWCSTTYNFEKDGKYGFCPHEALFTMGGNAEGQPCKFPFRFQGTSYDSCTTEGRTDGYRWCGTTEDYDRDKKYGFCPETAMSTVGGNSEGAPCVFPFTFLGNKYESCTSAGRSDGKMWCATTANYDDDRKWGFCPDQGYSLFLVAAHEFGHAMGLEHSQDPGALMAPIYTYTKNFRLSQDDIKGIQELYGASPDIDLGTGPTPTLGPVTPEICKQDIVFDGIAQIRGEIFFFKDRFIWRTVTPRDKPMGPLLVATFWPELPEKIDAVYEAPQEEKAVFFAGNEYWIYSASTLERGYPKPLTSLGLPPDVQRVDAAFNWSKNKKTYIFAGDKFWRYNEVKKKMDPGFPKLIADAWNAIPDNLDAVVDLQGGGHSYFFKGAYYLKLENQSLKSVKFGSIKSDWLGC

[6] = target: T2, Caspase-6 (Homo sapiens (Human)) (UniProt P55212)
T2 sequence: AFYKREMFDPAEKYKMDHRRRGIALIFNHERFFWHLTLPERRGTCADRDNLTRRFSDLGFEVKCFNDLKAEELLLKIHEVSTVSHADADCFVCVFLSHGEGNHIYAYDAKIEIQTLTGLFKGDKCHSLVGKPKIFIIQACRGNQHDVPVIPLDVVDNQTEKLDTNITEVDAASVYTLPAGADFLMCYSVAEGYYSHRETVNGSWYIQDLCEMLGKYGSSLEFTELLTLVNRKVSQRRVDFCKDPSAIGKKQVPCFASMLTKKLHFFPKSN

[7] = target: Caspase-9 (Homo sapiens (Human)) (UniProt P55211)
Sequence of Caspase-9 (Homo sapiens (Human)) (P55211 whole entry): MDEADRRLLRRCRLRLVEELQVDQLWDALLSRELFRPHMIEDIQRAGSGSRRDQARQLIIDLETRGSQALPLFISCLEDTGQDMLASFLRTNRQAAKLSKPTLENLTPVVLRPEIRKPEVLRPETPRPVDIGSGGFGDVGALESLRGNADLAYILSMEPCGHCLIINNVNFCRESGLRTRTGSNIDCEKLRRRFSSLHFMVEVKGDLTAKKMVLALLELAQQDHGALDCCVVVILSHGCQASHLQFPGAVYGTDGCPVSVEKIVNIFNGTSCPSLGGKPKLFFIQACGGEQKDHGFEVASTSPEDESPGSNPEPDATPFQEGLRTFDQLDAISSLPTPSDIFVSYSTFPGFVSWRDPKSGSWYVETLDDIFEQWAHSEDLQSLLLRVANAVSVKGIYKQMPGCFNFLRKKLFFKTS

[8] = target: DPP9 (Homo sapiens (Human)) (UniProt Q86TI2)
[9] = target: DPP7 (Homo sapiens (Human)) (UniProt Q9UHL4)
[10] = target: Activated Protein C (Homo sapiens (Human)) (UniProt P04070)
[11] = target: Ubiquitin carboxyl-terminal hydrolase 10 (Homo sapiens (Human)) (UniProt Q14694)
Sequence of Ubiquitin carboxyl-terminal hydrolase 10 (Homo sapiens (Human)) (Q14694 whole entry): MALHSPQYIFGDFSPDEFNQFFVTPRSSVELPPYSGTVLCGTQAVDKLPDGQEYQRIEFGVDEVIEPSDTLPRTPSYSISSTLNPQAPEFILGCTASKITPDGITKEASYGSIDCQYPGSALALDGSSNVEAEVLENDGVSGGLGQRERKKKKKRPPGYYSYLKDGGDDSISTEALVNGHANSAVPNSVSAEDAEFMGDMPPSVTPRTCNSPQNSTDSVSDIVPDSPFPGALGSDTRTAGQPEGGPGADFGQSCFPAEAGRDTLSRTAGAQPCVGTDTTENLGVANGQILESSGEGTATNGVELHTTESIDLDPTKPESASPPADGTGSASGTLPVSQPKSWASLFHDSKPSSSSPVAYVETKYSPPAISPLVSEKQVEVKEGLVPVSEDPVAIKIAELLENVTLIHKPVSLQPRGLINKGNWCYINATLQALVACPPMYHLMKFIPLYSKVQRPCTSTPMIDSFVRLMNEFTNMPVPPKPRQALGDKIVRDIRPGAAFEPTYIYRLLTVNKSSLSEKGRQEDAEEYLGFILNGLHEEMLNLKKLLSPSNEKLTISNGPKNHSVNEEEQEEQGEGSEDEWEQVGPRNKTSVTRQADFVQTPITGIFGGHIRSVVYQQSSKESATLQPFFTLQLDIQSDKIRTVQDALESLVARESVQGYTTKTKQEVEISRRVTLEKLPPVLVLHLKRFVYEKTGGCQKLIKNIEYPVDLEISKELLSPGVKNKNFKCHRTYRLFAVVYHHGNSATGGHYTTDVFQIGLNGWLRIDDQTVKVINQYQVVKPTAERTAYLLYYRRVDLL

[12] = target: Ubiquitin carboxyl-terminal hydrolase 5 (Homo sapiens (Human)) (UniProt P45974)
Sequence of Ubiquitin carboxyl-terminal hydrolase 5 (Homo sapiens (Human)) (P45974 whole entry): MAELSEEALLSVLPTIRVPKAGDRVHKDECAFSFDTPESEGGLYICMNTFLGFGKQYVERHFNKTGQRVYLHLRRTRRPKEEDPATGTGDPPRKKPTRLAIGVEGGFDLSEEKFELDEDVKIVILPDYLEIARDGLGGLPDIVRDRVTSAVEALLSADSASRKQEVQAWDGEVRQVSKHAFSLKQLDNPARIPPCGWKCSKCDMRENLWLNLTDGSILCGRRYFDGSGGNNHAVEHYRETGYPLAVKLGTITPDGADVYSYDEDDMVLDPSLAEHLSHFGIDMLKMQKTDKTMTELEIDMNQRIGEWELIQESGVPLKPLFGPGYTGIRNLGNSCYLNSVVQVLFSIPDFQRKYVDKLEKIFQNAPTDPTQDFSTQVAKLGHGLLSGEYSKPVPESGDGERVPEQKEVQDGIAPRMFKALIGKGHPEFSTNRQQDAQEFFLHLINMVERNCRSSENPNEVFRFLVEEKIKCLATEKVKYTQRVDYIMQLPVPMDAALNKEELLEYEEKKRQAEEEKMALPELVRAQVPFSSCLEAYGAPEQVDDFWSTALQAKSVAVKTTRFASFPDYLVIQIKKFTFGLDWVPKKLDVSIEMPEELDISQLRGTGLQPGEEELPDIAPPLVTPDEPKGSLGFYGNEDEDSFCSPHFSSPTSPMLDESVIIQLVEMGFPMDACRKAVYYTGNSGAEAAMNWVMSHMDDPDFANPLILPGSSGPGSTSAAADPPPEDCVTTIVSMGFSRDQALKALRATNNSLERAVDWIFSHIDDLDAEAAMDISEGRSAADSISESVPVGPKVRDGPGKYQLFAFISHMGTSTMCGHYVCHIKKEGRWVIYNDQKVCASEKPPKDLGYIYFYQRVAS

[13] = target: serine protease NS3 (a.a. 3-181) from Hepatitis C virus genotype 2a (Hepatitis C virus genotype 2a)
[14] = target: serine protease NS3 (a.a. 3-181) from Hepatitis C virus genotype 1b (Hepatitis C virus genotype 1b)
[15] = target: Ubiquitin carboxy-terminal hydrolase L1 (Homo sapiens (Human)) (UniProt P09936)
[16] = target: Ubiquitin carboxyl-terminal hydrolase 8 (Homo sapiens (Human)) (UniProt P40818)
[17] = target: T3, Deubiquitinase OTUD6B (Homo sapiens (Human)) (UniProt Q8N6M0)
T3 sequence: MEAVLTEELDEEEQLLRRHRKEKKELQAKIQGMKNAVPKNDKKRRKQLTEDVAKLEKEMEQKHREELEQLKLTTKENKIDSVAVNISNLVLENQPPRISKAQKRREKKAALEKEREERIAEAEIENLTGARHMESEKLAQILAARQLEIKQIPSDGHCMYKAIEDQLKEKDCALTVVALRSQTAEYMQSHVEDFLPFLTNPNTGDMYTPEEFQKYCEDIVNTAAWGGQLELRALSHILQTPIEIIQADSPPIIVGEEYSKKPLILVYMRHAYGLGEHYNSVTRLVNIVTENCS

[18] = target: T4, Caspase-3 (Homo sapiens (Human)) (UniProt P42574)
T4 sequence: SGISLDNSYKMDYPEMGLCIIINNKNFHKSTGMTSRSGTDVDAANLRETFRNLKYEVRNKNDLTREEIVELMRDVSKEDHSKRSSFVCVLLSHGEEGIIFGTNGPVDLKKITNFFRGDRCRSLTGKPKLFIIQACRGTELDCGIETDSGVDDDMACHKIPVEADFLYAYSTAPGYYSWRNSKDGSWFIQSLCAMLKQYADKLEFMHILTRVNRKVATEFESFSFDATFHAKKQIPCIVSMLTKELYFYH

[19] = target: DPP8 (Homo sapiens (Human)) (UniProt Q6V1X1)
[20] = target: Cathepsin B (Homo sapiens (Human)) (UniProt P07858)
[21] = target: serine protease NS3 (a.a. 3-181) from Hepatitis C virus genotype 1b (mutant D168V) (Hepatitis C virus genotype 1b)
[22] = target: Cathepsin V (Homo sapiens (Human)) (UniProt O60911)
[23] = target: T5, Ubiquitin carboxy-terminal hydrolase L3 (Homo sapiens (Human)) (UniProt P15374)
T5 sequence: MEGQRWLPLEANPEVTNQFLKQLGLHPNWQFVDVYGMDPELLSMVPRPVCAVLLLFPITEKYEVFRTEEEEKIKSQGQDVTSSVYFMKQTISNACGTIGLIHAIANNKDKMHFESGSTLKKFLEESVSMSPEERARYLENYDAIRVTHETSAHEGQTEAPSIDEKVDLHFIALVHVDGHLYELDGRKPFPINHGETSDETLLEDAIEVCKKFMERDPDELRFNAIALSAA

[24] = target: Beta secretase (Homo sapiens (Human)) (UniProt P56817)
[25] = target: Recombinant human FAP (R&D systems, #3715-SE) (human)
Sequence of Recombinant human FAP (R&D systems, #3715-SE) (human) (chain, as listed by the source limits assumed): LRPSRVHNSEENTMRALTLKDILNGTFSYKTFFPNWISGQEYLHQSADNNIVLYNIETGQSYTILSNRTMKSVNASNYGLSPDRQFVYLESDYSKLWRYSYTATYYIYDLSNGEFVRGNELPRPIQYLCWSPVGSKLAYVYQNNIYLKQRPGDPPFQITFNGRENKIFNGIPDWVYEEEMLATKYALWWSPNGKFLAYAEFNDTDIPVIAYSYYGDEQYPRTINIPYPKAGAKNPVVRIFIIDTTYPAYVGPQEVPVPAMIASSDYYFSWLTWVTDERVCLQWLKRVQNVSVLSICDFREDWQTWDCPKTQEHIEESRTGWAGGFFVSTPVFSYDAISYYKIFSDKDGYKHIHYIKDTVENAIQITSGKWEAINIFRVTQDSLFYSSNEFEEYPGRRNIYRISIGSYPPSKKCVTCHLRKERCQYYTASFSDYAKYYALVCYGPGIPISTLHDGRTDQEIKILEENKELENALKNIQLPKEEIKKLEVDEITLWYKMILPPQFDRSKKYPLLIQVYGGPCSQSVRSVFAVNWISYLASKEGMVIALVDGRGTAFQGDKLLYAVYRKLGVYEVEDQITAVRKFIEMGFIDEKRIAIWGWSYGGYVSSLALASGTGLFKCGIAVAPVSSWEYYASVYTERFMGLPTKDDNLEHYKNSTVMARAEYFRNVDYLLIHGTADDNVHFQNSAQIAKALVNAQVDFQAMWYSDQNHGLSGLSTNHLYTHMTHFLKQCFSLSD

## Hex-[Cys(tMeBn(DOTA-AET))-Pro-Pro-Thr-Gln-Phe-Cys]-OH (3BP-3554) (peptide)
[1]
  % Inhibition of Specific Binding: 54%
BZD (central)
  % Inhibition of Specific Binding: 5%
MAO-A
  % Inhibition of Specific Binding: -25%
Na+ channel (site 2)
  % Inhibition of Specific Binding: 14%
KV channel
  % Inhibition of Specific Binding: 4%
NMDA
  % Inhibition of Specific Binding: 1%
[2]
  Percentage inhibition (%) (% inhibition at 10 µM): 2
[3]
  Percentage inhibition (%) (% inhibition at 10 µM): -7
[4]
  Percentage inhibition (%) (% inhibition at 10 µM): -25
[5]
  Percentage inhibition (%) (% inhibition at 10 µM): -2
[6]
  Percentage inhibition (%) (% inhibition at 10 µM): -3
[7]
  Percentage inhibition (%) (% inhibition at 10 µM): -2
[8]
  Percentage inhibition (%) (% inhibition at 10 µM): -5
[9]
  Percentage inhibition (%) (% inhibition at 10 µM): -7
[10]
  Percentage inhibition (%) (% inhibition at 10 µM): 1
[11]
  Percentage inhibition (%) (% inhibition at 10 µM): -1
[12]
  Percentage inhibition (%) (% inhibition at 10 µM): -2
[13]
  Percentage inhibition (%) (% inhibition at 10 µM): -40
[14]
  Percentage inhibition (%) (% inhibition at 10 µM): -9
[15]
  Percentage inhibition (%) (% inhibition at 10 µM): 4
[16]
  Percentage inhibition (%) (% inhibition at 10 µM): 1
[17]
  Percentage inhibition (%) (% inhibition at 10 µM): 0
[18]
  Percentage inhibition (%) (% inhibition at 10 µM): -1
[19]
  Percentage inhibition (%) (% inhibition at 10 µM): 11
[20]
  Percentage inhibition (%) (% inhibition at 10 µM): 2
[21]
  Percentage inhibition (%) (% inhibition at 10 µM): -17
[22]
  Percentage inhibition (%) (% inhibition at 10 µM): -1
[23]
  Percentage inhibition (%) (% inhibition at 10 µM): 0
[24]
  Percentage inhibition (%) (% inhibition at 10 µM): 7

## Hex-[Cys(tMeBn(DOTA-PP))-Pro-Pro-Thr-Gln-Phe-Cys]-Asp-NH2 (3BP-3407) (peptide)
[1]
  % Inhibition of Specific Binding: 42%
BZD (central)
  % Inhibition of Specific Binding: -9%
MAO-A
  % Inhibition of Specific Binding: -5%
Na+ channel (site 2)
  % Inhibition of Specific Binding: -7%
KV channel
  % Inhibition of Specific Binding: -5%
NMDA
  % Inhibition of Specific Binding: 9%
[25]
  pIC50 Category (Activity): > 8 pIC50
[2]
  Percentage inhibition (%) (% inhibition at 10 µM): 5
[3]
  Percentage inhibition (%) (% inhibition at 10 µM): 2
[4]
  Percentage inhibition (%) (% inhibition at 10 µM): -24
[5]
  Percentage inhibition (%) (% inhibition at 10 µM): 3
[6]
  Percentage inhibition (%) (% inhibition at 10 µM): -1
[7]
  Percentage inhibition (%) (% inhibition at 10 µM): 8
[8]
  Percentage inhibition (%) (% inhibition at 10 µM): 0
[9]
  Percentage inhibition (%) (% inhibition at 10 µM): -3
[10]
  Percentage inhibition (%) (% inhibition at 10 µM): 8
[11]
  Percentage inhibition (%) (% inhibition at 10 µM): 5
[12]
  Percentage inhibition (%) (% inhibition at 10 µM): 46
[13]
  Percentage inhibition (%) (% inhibition at 10 µM): -2
[14]
  Percentage inhibition (%) (% inhibition at 10 µM): 5
[15]
  Percentage inhibition (%) (% inhibition at 10 µM): 4
[16]
  Percentage inhibition (%) (% inhibition at 10 µM): 6
[17]
  Percentage inhibition (%) (% inhibition at 10 µM): 15
[18]
  Percentage inhibition (%) (% inhibition at 10 µM): -2
[19]
  Percentage inhibition (%) (% inhibition at 10 µM): 5
[20]
  Percentage inhibition (%) (% inhibition at 10 µM): 36
[21]
  Percentage inhibition (%) (% inhibition at 10 µM): -6
[22]
  Percentage inhibition (%) (% inhibition at 10 µM): -18
[23]
  Percentage inhibition (%) (% inhibition at 10 µM): 14
[24]
  Percentage inhibition (%) (% inhibition at 10 µM): -5
